Test results: patent US20150125491A1 (AURIGENE DISCOVERY TECHNOLOGIES, published 2015)
Bridges are numbered along the chain shown (N, C = ends). Where no end group is shown, it is not given here. [ ]: non-standard residue; d: D form. Ahx = NCCCCCC(=O)O

B1: Compound 6 (peptide)
peptide: IETSKSF
modifications: not fully specified; also: cyclic, bridge and C-terminus not given here
B2: Compound 7 (peptide)
peptide: SETSKVF
modifications: not fully specified; also: cyclic, bridge and C-terminus not given here
B3: Compound 11 (peptide)
peptide: IEMSKSQ
modifications: not fully specified; also: cyclic, bridge and C-terminus not given here
B4: Compound 12 (peptide)
peptide: IEMSKVQ-OH
modifications: lactam 2-5
B5: Compound 5 (peptide)
peptide: SETSKSI
modifications: not fully specified; also: cyclic, bridge and C-terminus not given here
B6: Compound 14 (peptide)
peptide: SNTSESFQ
modifications: cyclised between the N-terminal amino group of Ser and the alpha-carboxyl of the C-terminal Glu, which was attached to Rink amide resin through its gamma-carboxyl (gives Gln)
B7: Compound 15 (peptide)
peptide: cyclo(SNTSESF[Ahx]Q)
SMILES: C[C@@H](O)[C@@H]1NC(=O)[C@H](CC(N)=O)NC(=O)[C@H](CO)NC(=O)[C@H](CCC(N)=O)NC(=O)CCCCCNC(=O)[C@H](Cc2ccccc2)NC(=O)[C@H](CO)NC(=O)[C@H](CCC(=O)O)NC(=O)[C@H](CO)NC1=O
B8: Compound 16 (peptide)
peptide: SETSKSFQ
modifications: not fully specified; also: cyclic, bridge and C-terminus not given here
B9: Compound 17 (peptide)
peptide: cyclo([Ahx]SETSKSFQ)
B10: Compound 20 (peptide)
peptide: SETSKSFE
modifications: not fully specified; also: cyclic, bridge and C-terminus not given here
B11: Compound 1 (peptide)
peptide: SKTSESF-NH2
modifications: lactam 2-5
B12: Compound 2 (peptide)
peptide: SETSKSF-NH2
modifications: lactam 2-5; N-terminus assumed
SMILES: C[C@@H](O)[C@@H]1NC(=O)[C@@H](NC(=O)[C@@H](N)CO)CCC(=O)NCCCC[C@@H](C(=O)N[C@@H](CO)C(=O)N[C@@H](Cc2ccccc2)C(N)=O)NC(=O)[C@H](CO)NC1=O
B13: Compound 4 (peptide)
peptide: EETSKSF
modifications: not fully specified; also: cyclic, bridge and C-terminus not given here

Target: PD-1 on mouse splenocytes (mouse) (UniProt Q02242)
Assay: cell-based or functional assay

Sequence of PD-1 on mouse splenocytes (mouse) (Q02242 25-288): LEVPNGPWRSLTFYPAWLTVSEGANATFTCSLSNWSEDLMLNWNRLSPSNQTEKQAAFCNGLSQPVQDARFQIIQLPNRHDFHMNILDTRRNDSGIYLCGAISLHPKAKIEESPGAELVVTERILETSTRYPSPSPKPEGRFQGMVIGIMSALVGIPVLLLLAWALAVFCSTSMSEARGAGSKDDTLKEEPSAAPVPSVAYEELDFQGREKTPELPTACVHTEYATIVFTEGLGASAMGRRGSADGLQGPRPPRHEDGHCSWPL

| Molecule | % Splenocyte proliferation (Background proliferation: Splenocytes+anti-CD3/CD28+PDL or Tumor) [%] |
| --- | --- |
| PD-L1 expressed on MDA-MB-231 cells (from UniProt Q9NZQ7 19-290) (ligand) | 13 |

Target: PD-L1 expressed on MDA-MB-231 cells (UniProt Q9NZQ7 19-290, limits assumed)
Assay: cell-based or functional assay

Sequence of PD-L1 expressed on MDA-MB-231 cells (Q9NZQ7 19-290 limits assumed): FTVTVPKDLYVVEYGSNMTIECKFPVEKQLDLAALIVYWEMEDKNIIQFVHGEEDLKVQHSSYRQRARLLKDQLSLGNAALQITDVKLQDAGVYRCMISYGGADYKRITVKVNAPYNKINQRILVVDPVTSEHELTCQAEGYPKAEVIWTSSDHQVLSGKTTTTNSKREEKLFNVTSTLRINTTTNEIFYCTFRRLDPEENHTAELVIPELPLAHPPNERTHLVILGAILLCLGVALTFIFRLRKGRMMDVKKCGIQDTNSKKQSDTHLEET

| Molecule | % Splenocyte proliferation [%] | Fold induction [fold] |
| --- | --- | --- |
| B1 | 55 | 4.2 |
| B2 | 52 | 4 |
| B3 | 54 | 4.2 |
| B4 | 39 | 3 |
| B5 | 42 | 3.2 |
| B6 | 55 | 4.2 |
| B7 | 53 | 4 |
| B8 | 36 | 2.8 |
| B9 | 42 | 3.2 |
| B10 | 36 | 2.8 |
| B11 | 60 | 4.6 |
| B12 | 57 | 4.3 |
| B13 | 36 | 2.8 |
